Results as given in patent US20170173114A1, “METHODS AND COMPOSITIONS FOR INDUCTION OF UCP1 EXPRESSION” (Joslin Diabetes Center, Inc., priority 2014, published 2017).
Entries after “also recorded” stand apart in the source; their conditions may differ.

Tests used:
[1] = test system: 3T3-F442A white preadipocytes; experiment: 2-deoxy-[3H]glucose uptake in 3T3-F442A white preadipocytes; format: cell-based; conditions: FGF6 overexpressing vs control and EGF
Protocol: (§1) The following glucose uptake assay was used to determine whether FGF6 could impact cellular glucose uptake. Specifically, glucose uptake was monitored in WT-1 brown preadipocytes and 3T3-F442A white preadipocytes in the presence or absence of FGF6. After serum starvation in DMEM/H medium containing 1% of BSA for 2-3 h, cells were washed with HEPES buffer and then incubated with or without 100 nM insulin for 30 min in DMEM/H medium containing 1% of BSA. Glucose transport was determined by the addition of 2-deoxy-[3H]glucose (0.1 mM, 0.5 μCi/mL; PerkinElmer Life and Analytical Science, Waltham, Mass.). After 5 minutes of incubation, the reaction was stopped by ice-cold PBS and cells were washed twice with ice-cold PBS. Cells were then lysed in 0.1% SDS, and glucose uptake was assessed in 4 mL of scintillant using Beckman LS6500 scintillation counter (Beckman Coulter, Indianapolis Ind.). Nonspecific 2-deoxy-[3H]glucose uptake was measured in the presence of cytochalasin B (20 μM) and was subtracted from the total uptake to get specific glucose uptake. Results were expressed as the mean±s.e.m. of the indicated number of experiments. The protein content was determined by the Bradford method.

WT-1 brown preadipocytes = experiment: 2-deoxy-[3H]glucose uptake in WT-1 brown preadipocytes; format: cell-based, murine; conditions: FGF6 overexpressing vs control and EGF
Protocol: as §1
The role of PGs in regulating mitochondrial function and cellular glucose uptake was also assessed. […]

UCP1 [2] = experiment: UCP1 mRNA expression in SVF cells from interscapular brown adipose tissue (BAT-SVF); format: cell-based, C57BL/6 mice; conditions: growth media, 3 days; vs control
Protocol: (§2) Eight 6-week old C57BL/6 male mice were sacrificed. Interscapular BAT and axillary subcutaneous WAT were removed, minced and digested with 1 mg/ml collagenase for 45 minutes at 37° C. in DMEM/F12 media, containing 1% BSA and antibiotics. Digested tissues were filtered through sterile 150 μm nylon mesh and centrifuged at 250×g for 5 minutes. The floating fractions consisting of adipocytes were discarded and the pellets representing the SVF were then resuspended in erythrocyte lysis buffer (154 mM NH4Cl, 10 mM KHCO3, 0.1 mM EDTA) for 10 minutes to remove red blood cells. The cells were further centrifuged at 500×g for 5 minutes, plated at 8×10^5 cells/well of a 24-well plate and grown at 37° C. in DMEM/F12 supplemented with 10% FBS at 37° C.
(§3) To determine if FGF6 treatment of primary adipose progenitors could also increase UCP1 expression as observed in Example 1, stromo-vascular fraction (SVF) cells, which comprise adipocyte progenitors, were isolated from interscapular brown adipose tissue (BAT-SVF) and subcutaneous white adipose tissue (SQ-SVF). SVF cells were subsequently treated with FGF6 or FGF21 in growth media (DMEM+10% FBS) for 3 days, followed by determination of UCP1 expression. As described in FIGS. 9A and 9B, FGF21 treatment had little effect on UCP1 mRNA expression in either type of SVF cells, as compared to the control. […]

UCP1 [3] = experiment: UCP1 mRNA expression in C2C12 myogenic progenitors; format: cell-based; conditions: three days
UCP1 [4] = experiment: UCP1 mRNA expression (Q-RT-PCR) in WT-1 brown preadipocytes; format: cell-based, murine
Protocol: Total RNA was isolated with QIAzol lysis reagent (Qiagen, Valencia, Calif.) and purified by RNeasy Mini columns (Qiagen) following the manufacture's instructions. cDNA was prepared from total RNA using the Advantage RT-PCR kit (BD Biosciences, Palo Alto, Calif.) according to manufacturer's instructions. Diluted cDNA was used in a PCR reaction with SYBR Green Master Mix (Applied Biosystems, Foster City, Calif.) and primers specifically designed for detection of the gene of interest. PCR reactions were run in duplicate for each sample and quantitated in the ABI Sequence Detection System (Applied Biosystems). Data were expressed as arbitrary units after normalization to levels of expression of internal controls for each sample. Sequences of primers for specific genes are each obtained from the published literature or designed using publically available gene sequence databases. Unless otherwise indicated, gene expression data described in the examples below was obtained using QPCR.
The effect of FGF6 on differentiation of WT-1 murine brown preadipocytes was also examined. WT-1 cells can be induced to undergo brown adipocyte differentiation, characterized by lipid accumulation and expression of adipogenic and brown fat markers, as described above (Klein et al. (1999) J Biol Chem 274:34795; Tseng et al. (2005) Nat Cell Biol 7:601). WT-1 cells were treated with FGF6 in growth media (DMEM+10% FBS), a vehicle control (“control” or “C” referred to in FIGS. 3A-D), or induction media (“induction” or “I” referred to in FIGS. 3A-D) as described above for seven days. Following the treatment, cells were examined for the color of the culture media in combination with oil Red O staining, expression of adipogenic markers, expression of brown fat markers, immunofluorescent staining of cells with UCP1 and DPAI, and Western blot analysis to determine the presence of UCP1 and β-tubulin. The results are described in FIGS. 3A to 3D.
UCP1 mRNA expression in brown adipocyte cells was determined at FGF6 concentrations ranging from 0 to 300 ng/ml in the absence of induction cocktail.
In order to determine the length of time necessary to induce UCP1 expression upon exposure to of cells to FGF6, an experiment was performed whereby FGF6 was administered to brown preadipocytes at a concentration of 200 ng/ml and UCP1 expression was determined. FGF21 and a control were also used in the time course experiment. FGF21, a member of the endocrine FGF ligands that has been implicated in the browning of white fat (Fisher F. M. et al., Genes Dev. 26:271-281, 2012). […] FGF6 could acutely induce a significant increase of UCP1 expression as early as 4 hours after a 200 ng/ml dose, as described in FIG. 4B. At 24 hours, the fold-induction of UCP1 mRNA by FGF6 reached 700-fold higher than the untreated cells, as described in FIG. 4B.
To assess FGF6's role in the regulation of mitochondrial activity, FGF6 was stably expressed in WT-1 brown preadipocytes and 3T3-F442A white preadipocytes. Stable cells were generated by viral infection followed by drug selection.
FGF2, FGF6 and FGF9 were used at a dosage of 50 ng/mL, 100 ng/mL, 200 ng/mL or 300 ng/mL. FGF21 was used at the dosage of 50 ng/ml and 500 ng/mL. The concentration of BMP7 was 3.3 nM. RNA was isolated and UCP1 and PPARγ expression levels were evaluated by quantitative reverse transcription polymerase chain reaction (Q-RT-PCR) analysis after 24 hours (i.e., 1 day) (FIG. 14A), 2 days (FIG. 14B), 5 days (FIG. 14C) and 7 days (FIG. 14D) of treatment. All experiments were performed triplicate and the data are presented as mean+/−SEM.
FGF2, FGF6 and FGF9 were used at a dosage of 200 ng/mL. FGF21 was used at a dosage of 500 ng/mL. The concentration of BMP7 was 3.3 nM. mRNA was isolated and UCP1 and PPARγ expression levels were evaluated by quantitative reverse transcription polymerase chain reaction (Q-RT-PCR) analysis after 24 hours (i.e., 1 day), 2 days, 5 days and 7 days of treatment (FIG. 15). […]

UCP1 [5] = experiment: UCP1 mRNA expression in SVF cells from subcutaneous white adipose tissue (SQ-SVF); format: cell-based, C57BL/6 mice; conditions: growth media, 3 days; vs control
Protocol: as §2, §3

[6] = FGF21 50 and 500 ng/mL, BMP7 3.3 nM, with insulin and T3

Molecule | glucose uptake level in F442A (white) preadipocytes [1] | glucose uptake level in WT-1 (brown) preadipocytes (WT-1 brown preadipocytes) | effect on UCP1 mRNA expression in BAT-SVF (UCP1 [2]) | UCP1 mRNA expression in C2C12 myogenic progenitors (UCP1 [3]) | UCP1 expression level, time course (UCP1 [4]; FGF2, FGF6, FGF9 200 ng/mL, FGF21 500 ng/mL, with insulin and T3, 1, 2, 5, 7 days) | UCP1 expression level at day 7 (UCP1 [4]; [6]) | UCP1 expression level at days 1, 2 and 5 (UCP1 [4]; [6]) | effect on UCP1 expression in brown preadipocytes cultured in growth media (UCP1 [4]; data not shown) | effect on UCP1 mRNA expression in SQ-SVF (UCP1 [5])
EGF: control treatment in glucose uptake assay (protein, UniProt P01133 23-1207, looked up, Pro-epidermal growth factor) Pro-epidermal growth factor: PQHWSCPEGTLAGNGNSTCVGPAPFLIFSHGNSIFRIDTEGTNYEQLVVDAGVSVIMDFHYNEKRIYWVDLERQLLQRVFLNGSRQERVCNIEKNVSGMAINWINEEVIWSNQQEGIITVTDMKGNNSHILLSALKYPANVAVDPVERFIFWSSEVAGSLYRADLDGVGVKALLETSEKITAVSLDVLDKRLFWIQYNREGSNSLICSCDYDGGSVHISKHPTQHNLFAMSLFGDRIFYSTWKMKTIWIANKHTGKDMVRINLHSSFVPLGELKVVHPLAQPKAEDDTWEPEQKLCKLRKGNCSSTVCGQDLQSHLCMCAEGYALSRDRKYCEDVNECAFWNHGCTLGCKNTPGSYYCTCPVGFVLLPDGKRCHQLVSCPRNVSECSHDCVLTSEGPLCFCPEGSVLERDGKTCSGCSSPDNGGCSQLCVPLSPVSWECDCFPGYDLQLDEKSCAASGPQPFLLFANSQDIRHMHFDGTDYGTLLSQQMGMVYALDHDPVENKIYFAHTALKWIERANMDGSQRERLIEEGVDVPEGLAVDWIGRRFYWTDRGKSLIGRSDLNGKRSKIITKENISQPRGIAVHPMAKRLFWTDTGINPRIESSSLQGLGRLVIASSDLIWPSGITIDFLTDKLYWCDAKQSVIEMANLDGSKRRRLTQNDVGHPFAVAVFEDYVWFSDWAMPSVMRVNKRTGKDRVRLQGSMLKPSSLVVVHPLAKPGADPCLYQNGGCEHICKKRLGTAWCSCREGFMKASDGKTCLALDGHQLLAGGEVDLKNQVTPLDILSKTRVSEDNITESQHMLVAEIMVSDQDDCAPVGCSMYARCISEGEDATCQCLKGFAGDGKLCSDIDECEMGVPVCPPASSKCINTEGGYVCRCSEGYQGDGIHCLDIDECQLGEHSCGENASCTNTEGGYTCMCAGRLSEPGLICPDSTPPPHLREDDHHYSVRNSDSECPLSHDGYCLHDGVCMYIEALDKYACNCVVGYIGERCQYRDLKWWELRHAGHGQQQKVIVVAVCVVVLVMLLLLSLWGAHYYRTQKLLSKNPKNPYEESSRDVRSRRPADTEDGMSSCPQPWFVVIKEHQDLKNGGQPVAGEDGQAADGSMQPTSWRQEPQLCGMGTEQGCWIPVSSDKGSCPQVMERSFHMPSYGTQTLEGGVEKPHSLLSANPLWQQRALDPPHQMELTQ | no substantial effect | no substantial effect |  |  |  |  |  |  | 
FGF21: fibroblast growth factor 21, member of the endocrine FGF ligands (protein, listed as Homo sapiens) MDSDETGFEHSGLWVSVLAGLLLGACQAHPIPDSSPLLQFGGQVRQRYLYTDDAQQTEAHLEIREDGTVGGAADQSPESLLQLKALKPGVIQILGVKTSRFLCQRPDGALYGSLHFDPEACSFRELLLEDGYNVYQSEAHGLPLHLPGNKSPHRDPAPRGPARFLPLPGLPPALPEPPGILAPQPPDVGSSDPLSMVGPSQGRSPSYAS |  |  | little effect | neither FGF6 nor FGF21 induced UCP1 mRNA expression; also recorded: no induction of UCP1 | did not express detectable amounts of UCP1 | only minimal amounts | did not express detectable amounts of UCP1 | marginal effect | little effect
